Laboratory results reported in patent US5574136.

Biological target: human G-CSF receptor, class 2 (plasmid pHQ2), form lacking the transmembrane domain (human)
Assay: saturation binding of murine 125I-G-CSF to COS cells transfected with pHQ2, Scatchard plot

- Kd: 0.44 nM
- binding sites /cell: 6000 /cell
Substance: mouse recombinant G-CSF (granulocyte colony-stimulating factor) (from UniProt P09920) (ligand)
